Experimental data from US20120021995A1 (published 2012).

T1: recombinant human TRAIL R1 (DR4)/Fc chimera (human, UniProt O00220 24-239)
T1 construct: bought (R&D Systems); not shown: Fc of the bought chimera (R&D Systems)
T1 sequence: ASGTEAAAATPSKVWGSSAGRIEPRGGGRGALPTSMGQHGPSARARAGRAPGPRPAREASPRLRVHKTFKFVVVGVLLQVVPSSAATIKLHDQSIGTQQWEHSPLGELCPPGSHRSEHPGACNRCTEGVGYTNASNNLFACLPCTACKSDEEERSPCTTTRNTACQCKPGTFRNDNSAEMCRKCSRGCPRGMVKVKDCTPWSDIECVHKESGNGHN

T2: DR4 (TRAIL-R1) on cancer cells (human, UniProt O00220 24-468)
T2 sequence: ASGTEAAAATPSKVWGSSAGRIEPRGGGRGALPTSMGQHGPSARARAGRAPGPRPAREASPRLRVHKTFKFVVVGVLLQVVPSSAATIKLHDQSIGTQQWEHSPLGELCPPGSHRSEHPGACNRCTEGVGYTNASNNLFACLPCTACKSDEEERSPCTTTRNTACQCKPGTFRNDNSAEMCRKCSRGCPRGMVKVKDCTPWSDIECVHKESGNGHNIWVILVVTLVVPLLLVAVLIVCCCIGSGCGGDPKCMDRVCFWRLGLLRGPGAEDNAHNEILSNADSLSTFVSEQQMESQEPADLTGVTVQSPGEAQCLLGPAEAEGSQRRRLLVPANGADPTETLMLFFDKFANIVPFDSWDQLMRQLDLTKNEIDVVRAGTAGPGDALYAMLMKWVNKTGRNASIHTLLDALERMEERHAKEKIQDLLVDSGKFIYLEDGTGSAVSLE


Tests used:
[1] = biological target: T1, recombinant human TRAIL R1 (DR4)/Fc …; test: SPR (Biacore), DR4-Fc captured by anti-Fc, ATRIMER analyte; apparent
Method: (§1) Immobilization of an anti-human IgG Fc antibody (Biacore) to the CM5 chip (Biacore) was performed using standard amine coupling chemistry and this surface was used to capture recombinant human DR4 or DR5 receptor Fc fusion protein (R&D Systems). ATRIMER™ dilutions (1-500 nM) were injected over the DR4 and DR5 receptor surface at 30 μl/min and kinetic constants were derived from the sensorgram data using the Biaevaluation software (version 3.1, Biacore). Data collection was 3 minutes for the association and 5 minutes for dissociation. The anti-human IgG surface was regenerated with a 30 s pulse of 3 M magnesium chloride. All sensorgrams were double-referenced against an activated and blocked flow-cell as well as buffer injections.

[2] = biological target: T2, DR4 (TRAIL-R1) on cancer cells; test: cell-based or functional assay
[3] = biological target: T1, recombinant human TRAIL R1 (DR4)/Fc …; test: SPR (Biacore), ATRIMER
Method: as §1
Clones were then sub-cloned into pANA19 for expression and purification as described above. Cell killing activity was measured as described above, and binding affinity was measured by Biacore.

[4] = biological target: T2, DR4 (TRAIL-R1) on cancer cells; test: cell-based or functional assay; remark: listed apart in the source
[5] = biological target: T2, DR4 (TRAIL-R1) on cancer cells; test: cell-based or functional assay; remark: listed apart in the source
[6] = biological target: T2, DR4 (TRAIL-R1) on cancer cells; test: cell-based or functional assay; remark: listed apart in the source

| Kd [3] | koff [3] | kon [3] | Binder | ED50 (nM) ST486 (cell killing) [4] | other results |
| --- | --- | --- | --- | --- | --- |
| – | – | – | 014-42.3B8 (designed binder, ATRIMER; also called 14p42P3B8) EPPTQKPKKIVNAKKDVVNTKMFEELKSRLDTLAQEVALLKEQQALQTVCLKGTKVHMKCFLAFTQTKTFHEASEDCISRGGTLSTPQTGSENDALYEYLRQSVGNEAEIWLGLNGWLEGVGWVDMTGARIAYKNWETEITAQPDGGEHWGWENCAVLSGAANGKWFDKRCRDQLPYICQFGIV | – | Ka [1]: 1.11e+08 M⁻¹; Kd [1]: 9.01 nM; koff [1]: 0.00101 s⁻¹; kon [1]: 112000 M⁻¹ s⁻¹ |
| – | – | – | 142p72P1C9 (designed binder) EPPTQKPKKIVNAKKDVVNTKMFEELKSRLDTLAQEVALLKEQQALQTVCLKGTKVHMKCFLAFTQTKTFHEASEDCISRGGTLSTPQTGSENDALYEYLRQSVGNEAEIWLGLNGWLEGSGWVDMTGARIAYKNWGDPRWSQPDGGVQWRWENCAVLSGAANGKWFDKRCRDQLPYICQFGIV | – | EC50 Colo205 (cell killing) [2]: 0.18 nM; EC50 ST486 (cell killing) [2]: 0.03 nM |
| – | – | – | 65p114P1A3 (designed binder) EPPTQKPKKIVNAKKDVVNTKMFEELKSRLDTLAQEVALLKEQQALQTVCLKGTKVHMKCFLAFTQTKTFHEASEDCISRGGTLSTPQTGSENDALYEYLRQSVGNEAEIWLGLNGWLEGSGWVDMTGARIAYKNWADPKWSQPDGGVQWRWENCAVLSGAANGKWFDKRCRDQLPYICQFGIV | – | EC50 Colo205 (cell killing) [2]: 0.11 nM; EC50 ST486 (cell killing) [2]: 0.05 nM |
| – | – | – | 142p62P1A2 (designed binder) EPPTQKPKKIVNAKKDVVNTKMFEELKSRLDTLAQEVALLKEQQALQTVCLKGTKVHMKCFLAFTQTKTFHEASEDCISRGGTLSTPQTGSENDALYEYLRQSVGNEAEIWLGLNGWLEGSGWVDMTGARIAYKNWGDQRLAQPDGGVQWRWENCAVLSGAANGKWFDKRCRDQLPYICQFGIV | – | EC50 Colo205 (cell killing) [2]: 0.39 nM; EC50 ST486 (cell killing) [2]: 0.3 nM |
| – | – | – | 65p114P1B2 (designed binder) EPPTQKPKKIVNAKKDVVNTKMFEELKSRLDTLAQEVALLKEQQALQTVCLKGTKVHMKCFLAFTQTKTFHEASEDCISRGGTLSTPQTGSENDALYEYLRQSVGNEAEIWLGLNGWLEGSGWVDMTGARIAYKNWFHDRFNQPDGGVQWRWENCAVLSGAANGKWFDKRCRDQLPYICQFGIV | – | EC50 Colo205 (cell killing) [2]: 0.18 nM; EC50 ST486 (cell killing) [2]: 0.09 nM |
| – | – | – | 142p62P1G2 (designed binder) EPPTQKPKKIVNAKKDVVNTKMFEELKSRLDTLAQEVALLKEQQALQTVCLKGTKVHMKCFLAFTQTKTFHEASEDCISRGGTLSTPQTGSENDALYEYLRQSVGNEAEIWLGLNGWLEGSGWVDMTGARIAYKNWADERFLQPDGGVQWRWENCAVLSGAANGKWFDKRCRDQLPYICQFGIV | – | EC50 Colo205 (cell killing) [2]: 0.32 nM; EC50 ST486 (cell killing) [2]: 0.2 nM |
| 1.85 nM | 0.000571 s⁻¹ | 141000 M⁻¹ s⁻¹ | 119p94P1C1 (designed binder, ATRIMER from pANA19) EPPTQKPKKIVNAKKDVVNTKMFEELKSRLDTLAQEVALLKEQQALQTVCLKGTKVHMKCFLAFTQTKTFHEASEDCISRGGTLSTPQTGSENDALYEYLRQSVGNEAEIWLGLNGWLEGVGWVDMTGARIAYKNWAISDERQPDGGWPFSNENCAVLSGAANGKWFDKRCRDQLPYICQFGIV | 251 nM | – |
| 1.42 nM | 0.000329 s⁻¹ | 221000 M⁻¹ s⁻¹ | 119p83P1H1 (designed binder, ATRIMER from pANA19) EPPTQKPKKIVNAKKDVVNTKMFEELKSRLDTLAQEVALLKEQQALQTVCLKGTKVHMKCFLAFTQTKTFHEASEDCISRGGTLSTPQTGSENDALYEYLRQSVGNEAEIWLGLNGWLEGVGWVDMTGARIAYKNWTQRHSGQPDGGWPFSNENCAVLSGAANGKWFDKRCRDQLPYICQFGIV | 13 nM | – |
| – | – | – | 014-42.3D11 (designed binder, ATRIMER) EPPTQKPKKIVNAKKDVVNTKMFEELKSRLDTLAQEVALLKEQQALQTVCLKGTKVHMKCFLAFTQTKTFHEASEDCISRGGTLSTPQTGSENDALYEYLRQSVGNEAEIWLGLNGWLEGAGWVDMTGARIAYKNWETEITAQPDGGWHWRWENCAVLSGAANGKWFDKRCRDQLPYICQFGIV | – | Ka [1]: 2.53e+07 M⁻¹; Kd [1]: 39.5 nM; koff [1]: 0.000526 s⁻¹; kon [1]: 13300 M⁻¹ s⁻¹ |
| 2.82 nM | 0.00052 s⁻¹ | 185000 M⁻¹ s⁻¹ | 119p94P1B4 (designed binder, ATRIMER from pANA19) EPPTQKPKKIVNAKKDVVNTKMFEELKSRLDTLAQEVALLKEQQALQTVCLKGTKVHMKCFLAFTQTKTFHEASEDCISRGGTLSTPQTGSENDALYEYLRQSVGNEAEIWLGLNGWLEGVGWVDMTGARIAYKNWAEVPFFQPDGGWPFSNENCAVLSGAANGKWFDKRCRDQLPYICQFGIV | 127 nM | – |
| 1.31 nM | 0.000542 s⁻¹ | 400000 M⁻¹ s⁻¹ | 119p94P1D8 (designed binder, ATRIMER from pANA19) EPPTQKPKKIVNAKKDVVNTKMFEELKSRLDTLAQEVALLKEQQALQTVCLKGTKVHMKCFLAFTQTKTFHEASEDCISRGGTLSTPQTGSENDALYEYLRQSVGNEAEIWLGLNGWLEGVGWVDMTGARIAYKNWGWMDSKQPDGGWPFSNENCAVLSGAANGKWFDKRCRDQLPYICQFGIV | 30.5 nM | – |
| – | – | – | 014-42.3D10 (designed binder, ATRIMER) EPPTQKPKKIVNAKKDVVNTKMFEELKSRLDTLAQEVALLKEQQALQTVCLKGTKVHMKCFLAFTQTKTFHEASEDCISRGGTLSTPQTGSENDALYEYLRQSVGNEAEIWLGLNGYLEGYGWVDMTGARIAYKNWETEITAQPDGGATIAWENCAVLSGAANGKWFDKRCRDQLPYICQFGIV | – | Ka [1]: 6.58e+06 M⁻¹; Kd [1]: 152 nM; koff [1]: 0.00185 s⁻¹; kon [1]: 12200 M⁻¹ s⁻¹ |
| 0.16 nM | 2.21e-05 s⁻¹ | 138000 M⁻¹ s⁻¹ | 119p83P1H4 (designed binder, ATRIMER from pANA19) EPPTQKPKKIVNAKKDVVNTKMFEELKSRLDTLAQEVALLKEQQALQTVCLKGTKVHMKCFLAFTQTKTFHEASEDCISRGGTLSTPQTGSENDALYEYLRQSVGNEAEIWLGLNGWLEGVGWVDMTGARIAYKNWSKVRLEQPDGGWPFSNENCAVLSGAANGKWFDKRCRDQLPYICQFGIV | 0.13 nM | – |
| 1.11 nM | 0.000406 s⁻¹ | 360000 M⁻¹ s⁻¹ | 119p94P1B5 (designed binder, ATRIMER from pANA19) EPPTQKPKKIVNAKKDVVNTKMFEELKSRLDTLAQEVALLKEQQALQTVCLKGTKVHMKCFLAFTQTKTFHEASEDCISRGGTLSTPQTGSENDALYEYLRQSVGNEAEIWLGLNGWLEGVGWVDMTGARIAYKNWARHINEQPDGGWPFSNENCAVLSGAANGKWFDKRCRDQLPYICQFGIV | 6.6 nM | – |
| 2.41 nM | 0.0007 s⁻¹ | 349000 M⁻¹ s⁻¹ | 119p94P1G7 (designed binder, ATRIMER from pANA19) EPPTQKPKKIVNAKKDVVNTKMFEELKSRLDTLAQEVALLKEQQALQTVCLKGTKVHMKCFLAFTQTKTFHEASEDCISRGGTLSTPQTGSENDALYEYLRQSVGNEAEIWLGLNGWLEGVGWVDMTGARIAYKNWGWSARVQPDGGWPFSNENCAVLSGAANGKWFDKRCRDQLPYICQFGIV | 25.5 nM | – |
| 2.96 nM | 0.000892 s⁻¹ | 125000 M⁻¹ s⁻¹ | 119p94P1F4 (designed binder, ATRIMER from pANA19) EPPTQKPKKIVNAKKDVVNTKMFEELKSRLDTLAQEVALLKEQQALQTVCLKGTKVHMKCFLAFTQTKTFHEASEDCISRGGTLSTPQTGSENDALYEYLRQSVGNEAEIWLGLNGWLEGVGWVDMTGARIAYKNWAAVTMEQPDGGWPFSNENCAVLSGAANGKWFDKRCRDQLPYICQFGIV | 308 nM | – |
| – | – | – | 71p88P1A3 (designed binder) EPPTQKPKKIVNAKKDVVNTKMFEELKSRLDTLAQEVALLKEQQALQTVCLKGTKVHMKCFLAFTQTKTFHEASEDCISRGGTLSTPQTGSENDALYEYLRQSVGNEAEIWLGLNGYLAGTGWVDMTGARIAYKNWETEITAQPDGGRVLAWENCAVLSGAANGKWFDKRCRDQLPYICQFGIV | – | Colo205 % killing (% of TRAIL activity) [5]: -7%; H2122 % killing (% of TRAIL activity) [5]: -3%; ST486 % killing (% of TRAIL activity) [5]: 41%; ED50 ST486 (cell killing) [6]: 170 nM |
